What was measured:
[1] = biological target: hLDLR-K809R\C818A (human) (UniProt P01130); assay: cell-based or functional assay
[2] = biological target: wild type human low density lipoprotein receptor (hLDLR), isoform 1 (human) (UniProt P01130); assay: cell-based or functional assay

percent LDL positive HEK293 cells, hLDLR-K809R\C818A co-transfected with hIDOL [1]: 14 % of cells | percent LDL positive HEK293 cells, hLDLR co-transfected with hIDOL [2]: 2 % of cells
Substance: human inducible degrader of LDLR (hIDOL) (from UniProt Q8WY64 1-445)
